Patent US20250243290A1

Tests used:
Assay in all cases: peptide-array ELISA [Con't]
NRI2…2RL = target: NRI2…2RL
CTV2DS2…2TSTSPTRC = target: CTV2DS2…2TSTSPTRC
[1] = target: C22SK2…2CAV2…
[2] = target: CNASMDAV2…2…
LS2…2…2 = target: LS2…2…2
S2…2RPGW = target: S2…2RPGW
[3] = target: QEGCRL2…
2…2TREQNRIC = target: 2…2TREQNRIC
CDVV2KP2…2TSTSPTRC = target: CDVV2KP2…2TSTSPTRC
…2R = target: …2R
CG2RL2APLRK2…22SK2C = target: CG2RL2APLRK2…22SK2C
…2TSTSPTRC = target: …2TSTSPTRC
[4] = target: C22SK2…2CAPLRK2…
2LS2…2R = target: 2LS2…2R
CQTAQM22SK2…2RLC = target: CQTAQM22SK2…2RLC
[5] = target: C2LS2GSR2…2…
KQEG2…2APGTFSN = target: KQEG2…2APGTFSN
2TREQNRI2…2RL = target: 2TREQNRI2…2RL
[6] = target: LSCGSR2…
[7] = target: 2LS2…2…

Sequence of …2TSTSPTRC (peptide, as listed by the source): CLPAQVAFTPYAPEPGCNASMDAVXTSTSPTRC
Sequence of …2R (peptide, as listed by the source): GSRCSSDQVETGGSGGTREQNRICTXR
Sequence of LSCGSR2… (peptide, as listed by the source): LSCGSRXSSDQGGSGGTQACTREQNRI
Sequence of QEGCRL2… (peptide, as listed by the source): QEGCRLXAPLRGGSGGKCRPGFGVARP

agonistic TNFR2 antibody MR2-1
Raw luminescence data (NRI2…2RL): 184 | Raw luminescence data (CTV2DS2…2TSTSPTRC): 182 | Raw luminescence data [1]: 181 | Raw luminescence data [2]: 173 | Raw luminescence data (LS2…2…2): 187 | Raw luminescence data (S2…2RPGW): 177 | Raw luminescence data [3]: 173 | Raw luminescence data (2…2TREQNRIC): 184 | Raw luminescence data (CDVV2KP2…2TSTSPTRC): 191 | Raw luminescence data (…2R): 180 | Raw luminescence data (CG2RL2APLRK2…22SK2C): 183 | Raw luminescence data (…2TSTSPTRC): 172 | Raw luminescence data [4]: 191 | Raw luminescence data (2LS2…2R): 181 | Raw luminescence data (CQTAQM22SK2…2RLC): 179 | Raw luminescence data [5]: 187 | Raw luminescence data (KQEG2…2APGTFSN): 180 | Raw luminescence data (2TREQNRI2…2RL): 186 | Raw luminescence data [6]: 181 | Raw luminescence data [7]: 190
